Data on three molecules can be found in US20250144178A1 (KANAPH THERAPEUTICS, published 2025).

Experiment [1] addresses T1, B16F10.
T1 construct: not a protein target; also called parental B16F10 cells, without the transduced mouse FAP gene
Nature of the experiment: flow cytometry on parental B16F10 cells, detection with anti-mouse IgG2a antibody. As for the experimental part: (§1) Specifically, the cell line was prepared by suspending in a FACS buffer solution at 1×10⁵ cells/100 μl, and treated with 1 μg of each T1.12m, T1.01m, T1.02m and T1.03m. The cells were washed twice with a FACS buffer solution. The cells were stained with an anti-mouse IgG2a antibody (Biolegend). The negative control was stained only with an anti-mouse IgG2a antibody (Biolegend). The expression rate of the stained cells was measured using BD LSR and analyzed using a FlowJo software.
For orientation: Flow cytometry measures light scatter and fluorescence of single cells or particles in a stream.

The target of experiment [2] is T2, mouse FAP (fibroblast activation protein alpha) overexpressed in B16F10 cells (B16F10-mFAP) (mouse, UniProt P97321 1-761).
T2 construct: whole, on cells; also called mouse FAP-expressing cell line
T2 sequence (looked up): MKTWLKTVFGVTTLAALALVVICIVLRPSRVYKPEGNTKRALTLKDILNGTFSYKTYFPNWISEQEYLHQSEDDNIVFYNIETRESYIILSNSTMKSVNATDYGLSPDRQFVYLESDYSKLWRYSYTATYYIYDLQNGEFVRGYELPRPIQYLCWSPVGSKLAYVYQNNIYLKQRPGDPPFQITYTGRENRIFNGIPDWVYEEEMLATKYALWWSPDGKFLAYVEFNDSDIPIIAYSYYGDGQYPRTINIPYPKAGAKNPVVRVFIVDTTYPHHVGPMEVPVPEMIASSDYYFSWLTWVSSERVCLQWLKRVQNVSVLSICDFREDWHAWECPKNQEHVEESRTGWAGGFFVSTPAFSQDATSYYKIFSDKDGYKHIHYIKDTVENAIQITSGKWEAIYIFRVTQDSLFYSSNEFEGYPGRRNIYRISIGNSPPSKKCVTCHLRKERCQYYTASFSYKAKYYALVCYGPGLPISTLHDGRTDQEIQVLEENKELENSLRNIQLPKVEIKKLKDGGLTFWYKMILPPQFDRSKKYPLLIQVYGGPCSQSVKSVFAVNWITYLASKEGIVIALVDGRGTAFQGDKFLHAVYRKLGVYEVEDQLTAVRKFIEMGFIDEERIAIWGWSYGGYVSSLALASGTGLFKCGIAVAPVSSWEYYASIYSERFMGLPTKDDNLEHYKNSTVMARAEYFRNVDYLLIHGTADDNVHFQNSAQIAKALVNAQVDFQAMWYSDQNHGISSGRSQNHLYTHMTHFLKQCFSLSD
Nature of the experiment: flow cytometry on B16F10-mFAP cells, 1 µg protein per 1x10^5 cells, anti-mouse IgG2a detection. As for the experimental part:
as §1

Experiment [3] has as its target T2, mouse FAP (fibroblast activation …). Nature of the experiment: flow cytometry on B16F10-mFAP cells, detection with anti-mouse IgG2a antibody. The protocol:
as §1

Experiment [4] has as its target T3, recombinant human FAP (human, UniProt Q12884 26-760).
T3 construct: Soluble analyte in SPR; The description calls FAP a homodimer; also called rhFAP
T3 sequence (looked up): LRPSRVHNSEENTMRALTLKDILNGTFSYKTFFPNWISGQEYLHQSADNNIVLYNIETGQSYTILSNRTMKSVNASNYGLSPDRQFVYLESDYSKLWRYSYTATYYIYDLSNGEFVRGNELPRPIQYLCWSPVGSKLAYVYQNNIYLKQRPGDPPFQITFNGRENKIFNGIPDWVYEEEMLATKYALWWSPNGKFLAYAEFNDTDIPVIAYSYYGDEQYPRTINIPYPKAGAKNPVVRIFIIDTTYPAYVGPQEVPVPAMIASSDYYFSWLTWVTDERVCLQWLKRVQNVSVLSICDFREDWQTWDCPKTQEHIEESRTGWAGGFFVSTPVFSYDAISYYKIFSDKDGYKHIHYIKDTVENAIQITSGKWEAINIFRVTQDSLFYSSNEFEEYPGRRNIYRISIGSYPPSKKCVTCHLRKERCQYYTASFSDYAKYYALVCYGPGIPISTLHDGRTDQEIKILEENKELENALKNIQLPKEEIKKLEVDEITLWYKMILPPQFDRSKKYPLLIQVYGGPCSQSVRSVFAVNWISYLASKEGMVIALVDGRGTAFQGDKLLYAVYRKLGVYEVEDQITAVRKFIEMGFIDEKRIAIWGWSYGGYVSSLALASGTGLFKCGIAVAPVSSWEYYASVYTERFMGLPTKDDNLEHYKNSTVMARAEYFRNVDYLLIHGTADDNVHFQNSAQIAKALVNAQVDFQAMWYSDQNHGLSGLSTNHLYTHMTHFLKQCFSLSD
In words: SPR, captured by anti-human IgG (Fc), human FAP analyte, 1:1 binding model. The protocol: Bindings of T1.04, T1.05, T1.06, T1.07, T1.08, T1.09, T1.10 and T1.11 to recombinant human […] were identified by surface plasmon resonance (SPR). The surface of the CM5 chip was activated with a 1:1 mixture of […] (N-hydroxysuccinimide) and […] (1-Ethyl-3-(3-dimethylaminopropyl) carbodiimide), and 25 μg/ml of anti-human IgG (Fc) antibody was immobilized for 400 seconds at a rate of 10 μl/min. The remaining active ester groups were blocked with 1 M ethanolamine.
Specifically, human proteins T1.04, T1.05, T1.06, T1.07, T1.08, T1.09, T1.10 and T1.11 were diluted to 1 μg/ml, 1 μg/ml, 1 μg/ml, 1 μg/ml, 0.5 μg/ml, 0.5 μg/ml, 0.5 μg/ml, and 1 μg/ml, respectively, and reacted on a CM5 chip immobilized with an anti-human IgG (Fc) antibody. The recombinant human FAP was diluted to 25 nM or 50 nM in 1×HBS-EP+buffer solution and diluted by serial dilution. The diluted recombinant human FAP was reacted at a rate of 30 μl/min. The association and dissociation times were 180 seconds and 400 seconds, respectively. After the dissociation, stabilization was performed for 60 seconds, and then a regeneration was performed for 30 seconds with a 10 mM glycine pH 1.5 solution at a rate of 30 μl/min.
On the technique in general: In SPR one partner is held on a chip, and binding of the other changes the refractive index at the surface.

Numbering of substitutions follows the chain as printed. Some results are limits rather than exact numbers.

B1: T1.12m (anti-mu FAP/null, mu IgG2a DANG) (antibody)
heavy: QVQLQQSGAELARPGASVNLSCKASGYTFTNNGINWLKQRTGQGLEWIGEIYPRSTNTLYNEKFKGKATLTADRSSNTAYMELRSLTSEDSAVYFCARTLTAPFAFWGQGTLVTVSAAKTTAPSVYPLAPVCGDTTGSSVTLGCLVKGYFPEPVTLTWNSGSLSSGVHTFPAVLQSDLYTLSSSVTVTSSTWPSQSITCNVAHPASSTKVDKKIEPRGPTIKPCPPCKCPAPNLLGGPSVFIFPPKIKDVLMISLSPIVTCVVVAVSEDDPDVQISWFVNNVEVHTAQTQTHREDYGSTLRVVSALPIQHQDWMSGKEFKCKVNNKDLPAPIERTISKPKGSVRAPQVYVLPPPEEEMTKKQVTLWCMVTDFMPEDIYVEWTNNGKTELNYKNTEPVLDSDGSYFMYSKLRVEKKNWVERNSYSCSVVHEGLHNHHTTKSFSRTPGK
light: QIVLTQSPAIMSASPGEKVTMTCSASSGVNFMHWYQQKSGTSPKRWIFDTSKLASGVPARFSGSGSGTSYSLTISSMEAEDAATYYCQQWSFNPPTFGGGTKLEIKRADAAPTVSIFPPSSEQLTSGGASVVCFLNNFYPKDINVKWKIDGSERQNGVLNSWTDQDSKDSTYSMSSTLTLTKDEYERHNSYTCEATHKTSTSPIVKSFNRNEC
chain: EPRGPTIKPCPPCKCPAPNLLGGPSVFIFPPKIKDVLMISLSPIVTCVVVAVSEDDPDVQISWFVNNVEVHTAQTQTHREDYGSTLRVVSALPIQHQDWMSGKEFKCKVNNKDLPAPIERTISKPKGSVRAPQVYVLPPPEEEMTKKQVTLSCAVTDFMPEDIYVEWTNNGKTELNYKNTEPVLDSDGSYFMVSKLRVEKKNWVERNSYSCSVVHEGLHNHHTTKSFSRTPGK
notes: One-armed anti-mouse FAP antibody without IL-12; control
As for B1, the “percent of cells in the positive gate (mFAP-PE)” value in experiment [1] came out at 1.97%; in experiment [3] it was 92.6%. Moreover, the “percent of cells bound” value in experiment [2] was at least 99%.

B2: T1.10 (anti-hu FAP/anti-hu FAP-hu IL-12, hu IgG1 DANG (2 + 1)) (antibody)
heavy 1: QVQLVQSGAEVKKPGASVKVSCKTSRYTFTEYTIHWVRQAPGQRLEWIGGINPNNGIPNYNQKFKGRVTITVDTSASTAYMELSSLRSEDTAVYYCARRRIAYGYDEGHAMDYWGQGTLVTVSSASTKGPSVFPLAPSSKSTSGGTAALGCLVKDYFPEPVTVSWNSGALTSGVHTFPAVLQSSGLYSLSSVVTVPSSSLGTQTYICNVNHKPSNTKVDKKVEPKSCDKTHTCPPCPAPELLGGPSVFLFPPKPKDTLMISRTPEVTCVVVAVSHEDPEVKFNWYVDGVEVHNAKTKPREEQYGSTYRVVSVLTVLHQDWLNGKEYKCKVSNKALPAPIEKTISKAKGQPREPQVYTLPPSRDELTKNQVSLWCLVKGFYPSDIAVEWESNGQPENNYKTTPPVLDSDGSFFLYSKLTVDKSRWQQGNVFSCSVMHEALHNHYTQKSLSLSPGK
heavy 2: QVQLVQSGAEVKKPGASVKVSCKTSRYTFTEYTIHWVRQAPGQRLEWIGGINPNNGIPNYNQKFKGRVTITVDTSASTAYMELSSLRSEDTAVYYCARRRIAYGYDEGHAMDYWGQGTLVTVSSASTKGPSVFPLAPSSKSTSGGTAALGCLVKDYFPEPVTVSWNSGALTSGVHTFPAVLQSSGLYSLSSVVTVPSSSLGTQTYICNVNHKPSNTKVDKKVEPKSCDKTHTCPPCPAPELLGGPSVFLFPPKPKDTLMISRTPEVTCVVVAVSHEDPEVKFNWYVDGVEVHNAKTKPREEQYGSTYRVVSVLTVLHQDWLNGKEYKCKVSNKALPAPIEKTISKAKGQPREPQVYTLPPSRDELTKNQVSLSCAVKGFYPSDIAVEWESNGQPENNYKTTPPVLDSDGSFFLVSKLTVDKSRWQQGNVFSCSVMHEALHNHYTQKSLSLSPGGGGGSGGGGSGGGGSIWELKKDVYVVELDWYPDAPGEMVVLTCDTPEEDGITWTLDQSSEVLGSGKTLTIQVKEFGDAGQYTCHKGGEVLSHSLLLLHKKEDGIWSTDILKDQKEPKNKTFLRCEAKNYSGRFTCWWLTTISTDLTFSVKSSRGSSDPQGVTCGAATLSAERVRGDNKEYEYSVECQEDSACPAAEESLPIEVMVDAVHKLKYENYTSSFFIRDIIKPDPPKNLQLKPLKNSRQVEVSWEYPDTWSTPHSYFSLTFCVQVQGKSKREKKDRVFTDKTSATVICRKNASISVRAQDRYYSSSWSEWASVPCSGGGGSGGGGSGGGGSRNLPVATPDPGMFPCLHHSQNLLRAVSNMLQKARQTLEFYPCTSEEIDHEDITKDKTSTVEACLPLELTKNESCLNSRETSFITNGSCLASRKTSFMMALCLSSIYEDLKMYQVEFKTMNAKLLMDPKRQIFLDQNMLAVIDELMQALNFNSETVPQKSSLEEPDFYKTKIKLCILLHAFRIRAVTIDRVMSYLNAS
light: not shown
notes: single-chain IL-12 at the C-terminus of the hole heavy chain
B2: in experiment [4], the Kd was determined as 0.479 nM, the koff came to 7.48e-05 s⁻¹ and the kon worked out at 156000 M⁻¹ s⁻¹.

B3: T1.11 (anti-hu FAP/anti-hu FAP-hu IL-12 mut2, hu IgG1 DANG (2 + 1)) (antibody)
heavy 1: B2 heavy 1
heavy 2: B2 heavy 2 with K726A, K728A, K731A, K732A
light: not shown
notes: single-chain IL-12 mut2 at the C-terminus of the hole heavy chain
On to B3, for which, in experiment [4], the Kd amounted to 0.267 nM, the koff stood at 3.19e-05 s⁻¹ and the kon is 120000 M⁻¹ s⁻¹.

What is called Kd is the constant that tells how readily two partners part at equilibrium. Broadly, the koff is the rate constant with which the complex falls apart. The term kon denotes a measure of how fast the partners come together.
